Laboratory results as given in patent US20080058263A1 (published 2008).

Assays:
Test in all cases: receptor-Fc IP
VEGFR-1-Fc = target: T1, VEGFR-1-Fc (UniProt P17948 27-338)
T1 construct: domain: first three Ig domains; expressed in Drosophila S2 cells, purified on Protein A sepharose; also called VEGFR-1-Fc fusion protein; not shown: Fc fragment from the Signal-pIgPlus vector
How it was run: (§1)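 Binding of ligand from sample supernatant measured by pentahistidine-antibody immunoprecipitation. IP mix: PBS with 1.5% BSA, 0.06% Tween 20, 3 μg/ml heparin and 400 ng/ml fusion protein, added 1:2 to sample supernatant.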

VEGFR-3-Fc = target: T2, VEGFR-3-Fc (UniProt P35916 25-328)
T2 construct: domain: first three Ig domains; conditioned supernatant of 293T cells; also called VEGFR-3-Fc fusion protein; not shown: Fc fragment of the pIg vector
T2 sequence (looked up): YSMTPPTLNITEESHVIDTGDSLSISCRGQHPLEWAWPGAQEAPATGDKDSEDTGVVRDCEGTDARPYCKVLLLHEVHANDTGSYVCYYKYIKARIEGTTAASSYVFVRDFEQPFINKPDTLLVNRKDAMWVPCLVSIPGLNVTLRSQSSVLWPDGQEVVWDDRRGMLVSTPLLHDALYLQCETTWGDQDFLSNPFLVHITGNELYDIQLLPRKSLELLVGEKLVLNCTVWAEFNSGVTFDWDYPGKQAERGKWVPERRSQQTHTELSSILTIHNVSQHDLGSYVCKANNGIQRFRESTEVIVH
How it was run: as §1

VEGFR-2-Fc = target: T3, VEGFR-2-Fc (UniProt P35968 20-322)
T3 construct: domain: first 3 Ig domains; conditioned supernatant of 293T cells; also called VEGFR-2-Fc fusion protein; not shown: Fc fragment of the pIg vector
How it was run: as §1

T3 sequence (P35968 20-322): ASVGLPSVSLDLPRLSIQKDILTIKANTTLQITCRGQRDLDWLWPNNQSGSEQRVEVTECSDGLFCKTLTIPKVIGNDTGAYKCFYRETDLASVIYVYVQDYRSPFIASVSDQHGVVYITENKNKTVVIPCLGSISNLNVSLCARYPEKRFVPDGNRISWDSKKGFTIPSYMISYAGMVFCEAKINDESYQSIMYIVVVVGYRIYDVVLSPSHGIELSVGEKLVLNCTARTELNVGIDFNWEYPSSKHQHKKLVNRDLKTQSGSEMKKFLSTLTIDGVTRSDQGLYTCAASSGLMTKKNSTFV
T1 sequence (P17948 27-338): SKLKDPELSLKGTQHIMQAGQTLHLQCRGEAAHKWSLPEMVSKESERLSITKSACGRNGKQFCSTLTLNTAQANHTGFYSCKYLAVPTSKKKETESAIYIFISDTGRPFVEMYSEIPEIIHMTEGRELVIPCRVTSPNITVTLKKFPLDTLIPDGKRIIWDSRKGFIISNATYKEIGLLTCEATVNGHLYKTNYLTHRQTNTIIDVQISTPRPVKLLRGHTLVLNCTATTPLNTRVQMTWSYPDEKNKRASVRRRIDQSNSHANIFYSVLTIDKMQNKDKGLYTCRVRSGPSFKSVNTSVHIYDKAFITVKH

binding result (VEGFR-1-Fc): no binding
binding result (VEGFR-3-Fc): no binding
binding result (VEGFR-2-Fc): no binding
B1: 82-3 (ligand)
chain: AHYNTEILKFMDVYQRSYCHPIETLVDIFQEFGVATNTFFKPPCVSVYRCGGCCNSEGLQCVPTEESNITMQIMRIKPHQGQHIGEMSFLQHNKCECRPKKD
